Legend:
TDP-43 full-length [1] = molecular target: T1, TDP-43 full-length (UniProt Q13148 1-414); experiment: EMSA; EMSA: 10 mM HEPES pH 8.0, 50 mM KCl, 1 mM EDTA, 5% glycerol, 1 mM DTT, 40 U/ml RNase inhibitor, 4 C, 1 h; 20 fmol probe in 20 ul; 8% native PAGE; details: protein: recombinant, tags: MBP-6xHis (C-terminal as named TDP-43-MBP-6xHis)
TDP-43-RRM = TDP-43-RRM (UniProt Q13148 104-262); experiment: as above; details: protein: recombinant
TDP-43 full-length [2] = molecular target: T1, TDP-43 full-length; experiment: EMSA; separate experiment run beside 5FL; differs from 70 nM in 3d,e; EMSA: 10 mM HEPES pH 8.0, 50 mM KCl, 1 mM EDTA, 5% glycerol, 1 mM DTT, 40 U/ml RNase inhibitor, 4 C, 1 h; 20 fmol probe in 20 ul; 8% native PAGE; details: protein: recombinant; tags: MBP-6xHis (C-terminal as named TDP-43-MBP-6xHis); label: 5'-32P

T1 sequence (Q13148 whole entry): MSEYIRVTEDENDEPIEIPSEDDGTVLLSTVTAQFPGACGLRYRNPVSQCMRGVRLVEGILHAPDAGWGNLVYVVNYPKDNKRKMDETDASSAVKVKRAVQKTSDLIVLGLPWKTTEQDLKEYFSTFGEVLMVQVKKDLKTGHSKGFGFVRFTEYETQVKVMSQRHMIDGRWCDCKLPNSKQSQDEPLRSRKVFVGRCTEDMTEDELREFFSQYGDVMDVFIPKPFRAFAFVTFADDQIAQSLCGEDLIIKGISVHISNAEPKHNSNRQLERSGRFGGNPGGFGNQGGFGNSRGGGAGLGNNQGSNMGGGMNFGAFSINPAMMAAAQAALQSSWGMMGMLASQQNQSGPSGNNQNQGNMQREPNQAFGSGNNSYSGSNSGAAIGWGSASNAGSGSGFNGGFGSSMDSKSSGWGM
Sequence of TDP-43-RRM (Q13148 104-262): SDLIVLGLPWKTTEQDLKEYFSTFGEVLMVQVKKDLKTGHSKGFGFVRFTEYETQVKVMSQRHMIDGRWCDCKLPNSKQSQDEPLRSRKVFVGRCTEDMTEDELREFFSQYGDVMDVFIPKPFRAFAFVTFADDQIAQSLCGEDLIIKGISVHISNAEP

Row | Binder | Kd (TDP-43 full-length [1]; label: 5'-32P) | Kd (TDP-43-RRM; label: 5'-32P) | Kd (TDP-43 full-length [1]; label: 5'-biotin, 3'-32P pCp) | Kd (TDP-43-RRM; label: 5'-biotin, 3'-32P pCp) | Kd (TDP-43 full-length [2])
1 | CAGCAGCAGCAGCAGCAGCAG (ssRNA) [(CAG)7-0m1A] | 146 nM | 380 nM | – | – | –
2 | CCGUUCCGCCCAGGCCGCGCCCAGCUGGAAUGCA (ssRNA) [Control RNA probe (rA)] | – | – | 38 nM | 73 nM | –
3 | CCGUUCCGCCCAGGCCGCGCCCAGCUGGAAUGCA (ssRNA, m6A at position 12) [m6A RNA probe] | – | – | 46 nM | 81 nM | –
4 | CCGUUCCGCCCAGGCCGCGCCCAGCUGGAAUGCA (ssRNA, m1A at position 12) [m1A RNA probe] | – | – | 18 nM | 31 nM | –
5 | CAGCAGCAGCAGCAGCAGCAG (ssRNA, m1A at position 11) [(CAG)7-1m1A] | 70 nM | 180 nM | – | – | 13.1 nM

Reference: publication PMC10651481, “m1A in CAG repeat RNA binds to TDP-43 and induces neurodegeneration”
